Measured values from patent US12679878B2, “CRF2 receptor agonists and their use in therapy” (SANOFI, priority 2020, dated 2026).
Starred links: 1 amine or outer side, 2 acyl side, 3 side chain; linkers in the order of their positions; H or OH if unused. Non-standard residues stand in square brackets, D forms with d. Groups on a side chain read outwards from the residue. No end group written: not given here. *: point of attachment. C18 diacid = O=C(O)CCCCCCCCCCCCCCCCC(=O)*; γGlu = O=C(O)[C@H](CCC(=O)[*:2])N[*:1]; Palmitoyl = CCCCCCCCCCCCCCCC(=O)*; AEEA = NCCOCCOCC(=O)O; Aib = CC(C)(N)C(=O)O

Each binder was assayed against human corticotropin-releasing factor 2α (CRF2 α receptor) (human), Q13324 (assay: cell-based or functional assay).
human corticotropin-releasing factor 2α (CRF2 α receptor) (human), Q13324, sequence (Q13324 20-411): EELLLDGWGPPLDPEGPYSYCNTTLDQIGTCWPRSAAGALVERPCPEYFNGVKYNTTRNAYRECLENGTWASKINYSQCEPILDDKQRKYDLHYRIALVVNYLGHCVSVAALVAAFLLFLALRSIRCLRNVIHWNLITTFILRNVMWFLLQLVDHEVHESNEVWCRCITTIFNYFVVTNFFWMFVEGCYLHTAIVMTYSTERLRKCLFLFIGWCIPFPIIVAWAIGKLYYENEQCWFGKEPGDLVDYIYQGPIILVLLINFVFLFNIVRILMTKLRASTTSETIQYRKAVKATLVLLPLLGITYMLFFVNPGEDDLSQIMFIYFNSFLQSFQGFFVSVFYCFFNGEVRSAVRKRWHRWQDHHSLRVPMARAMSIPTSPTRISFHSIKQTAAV

EC50 [nM], 0% HSA [nM]	EC50 [nM], 0.1% HSA [nM]	Binder
0.68	25.7	IVLSLDVPIKLK([AEEA-AEEA-γGlu-C18 diacid])QILLKQERQKKQREKAKTN[Aib]QILAQV-NH2 (N-terminus assumed; SMILES CC[C@H](C)[C@H](N)C(=O)N[C@H](C(=O)N[C@@H](CC(C)C)C(=O)N[C@@H](CO)C(=O)N[C@@H](CC(C)C)C(=O)N[C@@H](CC(=O)O)C(=O)N[C@H](C(=O)N1CCC[C@H]1C(=O)N[C@H](C(=O)N[C@@H](CCCCN)C(=O)N[C@@H](CC(C)C)C(=O)N[C@@H](CCCCNC(=O)COCCOCCNC(=O)COCCOCCNC(=O)CC[C@H](NC(=O)CCCCCCCCCCCCCCCCC(=O)O)C(=O)O)C(=O)N[C@@H](CCC(N)=O)C(=O)N[C@H](C(=O)N[C@@H](CC(C)C)C(=O)N[C@@H](CC(C)C)C(=O)N[C@@H](CCCCN)C(=O)N[C@@H](CCC(N)=O)C(=O)N[C@@H](CCC(=O)O)C(=O)N[C@@H](CCCNC(=N)N)C(=O)N[C@@H](CCC(N)=O)C(=O)N[C@@H](CCCCN)C(=O)N[C@@H](CCCCN)C(=O)N[C@@H](CCC(N)=O)C(=O)N[C@@H](CCCNC(=N)N)C(=O)N[C@@H](CCC(=O)O)C(=O)N[C@@H](CCCCN)C(=O)N[C@@H](C)C(=O)N[C@@H](CCCCN)C(=O)N[C@H](C(=O)N[C@@H](CC(N)=O)C(=O)NC(C)(C)C(=O)N[C@@H](CCC(N)=O)C(=O)N[C@H](C(=O)N[C@@H](CC(C)C)C(=O)N[C@@H](C)C(=O)N[C@@H](CCC(N)=O)C(=O)N[C@H](C(N)=O)C(C)C)[C@@H](C)CC)[C@@H](C)O)[C@@H](C)CC)[C@@H](C)CC)C(C)C)C(C)C) [SEQ ID NO: 88]
0.11	5.7	IVLSLDVPIKLK([AEEA-AEEA-γGlu-C18 diacid])QILLKQERQKKQREQAKTNKQILAQV-NH2 (N-terminus assumed; SMILES CC[C@H](C)[C@H](N)C(=O)N[C@H](C(=O)N[C@@H](CC(C)C)C(=O)N[C@@H](CO)C(=O)N[C@@H](CC(C)C)C(=O)N[C@@H](CC(=O)O)C(=O)N[C@H](C(=O)N1CCC[C@H]1C(=O)N[C@H](C(=O)N[C@@H](CCCCN)C(=O)N[C@@H](CC(C)C)C(=O)N[C@@H](CCCCNC(=O)COCCOCCNC(=O)COCCOCCNC(=O)CC[C@H](NC(=O)CCCCCCCCCCCCCCCCC(=O)O)C(=O)O)C(=O)N[C@@H](CCC(N)=O)C(=O)N[C@H](C(=O)N[C@@H](CC(C)C)C(=O)N[C@@H](CC(C)C)C(=O)N[C@@H](CCCCN)C(=O)N[C@@H](CCC(N)=O)C(=O)N[C@@H](CCC(=O)O)C(=O)N[C@@H](CCCNC(=N)N)C(=O)N[C@@H](CCC(N)=O)C(=O)N[C@@H](CCCCN)C(=O)N[C@@H](CCCCN)C(=O)N[C@@H](CCC(N)=O)C(=O)N[C@@H](CCCNC(=N)N)C(=O)N[C@@H](CCC(=O)O)C(=O)N[C@@H](CCC(N)=O)C(=O)N[C@@H](C)C(=O)N[C@@H](CCCCN)C(=O)N[C@H](C(=O)N[C@@H](CC(N)=O)C(=O)N[C@@H](CCCCN)C(=O)N[C@@H](CCC(N)=O)C(=O)N[C@H](C(=O)N[C@@H](CC(C)C)C(=O)N[C@@H](C)C(=O)N[C@@H](CCC(N)=O)C(=O)N[C@H](C(N)=O)C(C)C)[C@@H](C)CC)[C@@H](C)O)[C@@H](C)CC)[C@@H](C)CC)C(C)C)C(C)C) [SEQ ID NO: 86]
0.23	16.2	IVLSLDVPIKLK([AEEA-AEEA-γGlu-C18 diacid])QILLKQERQKKQREKAKTNKQILAQV-NH2 (N-terminus assumed; SMILES CC[C@H](C)[C@H](N)C(=O)N[C@H](C(=O)N[C@@H](CC(C)C)C(=O)N[C@@H](CO)C(=O)N[C@@H](CC(C)C)C(=O)N[C@@H](CC(=O)O)C(=O)N[C@H](C(=O)N1CCC[C@H]1C(=O)N[C@H](C(=O)N[C@@H](CCCCN)C(=O)N[C@@H](CC(C)C)C(=O)N[C@@H](CCCCNC(=O)COCCOCCNC(=O)COCCOCCNC(=O)CC[C@H](NC(=O)CCCCCCCCCCCCCCCCC(=O)O)C(=O)O)C(=O)N[C@@H](CCC(N)=O)C(=O)N[C@H](C(=O)N[C@@H](CC(C)C)C(=O)N[C@@H](CC(C)C)C(=O)N[C@@H](CCCCN)C(=O)N[C@@H](CCC(N)=O)C(=O)N[C@@H](CCC(=O)O)C(=O)N[C@@H](CCCNC(=N)N)C(=O)N[C@@H](CCC(N)=O)C(=O)N[C@@H](CCCCN)C(=O)N[C@@H](CCCCN)C(=O)N[C@@H](CCC(N)=O)C(=O)N[C@@H](CCCNC(=N)N)C(=O)N[C@@H](CCC(=O)O)C(=O)N[C@@H](CCCCN)C(=O)N[C@@H](C)C(=O)N[C@@H](CCCCN)C(=O)N[C@H](C(=O)N[C@@H](CC(N)=O)C(=O)N[C@@H](CCCCN)C(=O)N[C@@H](CCC(N)=O)C(=O)N[C@H](C(=O)N[C@@H](CC(C)C)C(=O)N[C@@H](C)C(=O)N[C@@H](CCC(N)=O)C(=O)N[C@H](C(N)=O)C(C)C)[C@@H](C)CC)[C@@H](C)O)[C@@H](C)CC)[C@@H](C)CC)C(C)C)C(C)C) [SEQ ID NO: 87]
0.3	15.6	IVLSLDVPIKLK([AEEA-AEEA-γGlu-C18 diacid])QILLKQERQKKQREQAKTN[Aib]QILAQV-NH2 (N-terminus assumed; SMILES CC[C@H](C)[C@H](N)C(=O)N[C@H](C(=O)N[C@@H](CC(C)C)C(=O)N[C@@H](CO)C(=O)N[C@@H](CC(C)C)C(=O)N[C@@H](CC(=O)O)C(=O)N[C@H](C(=O)N1CCC[C@H]1C(=O)N[C@H](C(=O)N[C@@H](CCCCN)C(=O)N[C@@H](CC(C)C)C(=O)N[C@@H](CCCCNC(=O)COCCOCCNC(=O)COCCOCCNC(=O)CC[C@H](NC(=O)CCCCCCCCCCCCCCCCC(=O)O)C(=O)O)C(=O)N[C@@H](CCC(N)=O)C(=O)N[C@H](C(=O)N[C@@H](CC(C)C)C(=O)N[C@@H](CC(C)C)C(=O)N[C@@H](CCCCN)C(=O)N[C@@H](CCC(N)=O)C(=O)N[C@@H](CCC(=O)O)C(=O)N[C@@H](CCCNC(=N)N)C(=O)N[C@@H](CCC(N)=O)C(=O)N[C@@H](CCCCN)C(=O)N[C@@H](CCCCN)C(=O)N[C@@H](CCC(N)=O)C(=O)N[C@@H](CCCNC(=N)N)C(=O)N[C@@H](CCC(=O)O)C(=O)N[C@@H](CCC(N)=O)C(=O)N[C@@H](C)C(=O)N[C@@H](CCCCN)C(=O)N[C@H](C(=O)N[C@@H](CC(N)=O)C(=O)NC(C)(C)C(=O)N[C@@H](CCC(N)=O)C(=O)N[C@H](C(=O)N[C@@H](CC(C)C)C(=O)N[C@@H](C)C(=O)N[C@@H](CCC(N)=O)C(=O)N[C@H](C(N)=O)C(C)C)[C@@H](C)CC)[C@@H](C)O)[C@@H](C)CC)[C@@H](C)CC)C(C)C)C(C)C) [SEQ ID NO: 89]

More lines, now with the values behind:

Binder	EC50 [nM], 0% HSA [nM]	EC50 [nM], 0.1% HSA [nM]
IVLSLDVPIGLK([γGlu-Palmitoyl])QKLLKQQRQRKERQQAEKNARILARV-NH2 (N-terminus assumed; SMILES CCCCCCCCCCCCCCCC(=O)N[C@@H](CCC(=O)NCCCC[C@H](NC(=O)[C@H](CC(C)C)NC(=O)CNC(=O)[C@@H](NC(=O)[C@@H]1CCCN1C(=O)[C@@H](NC(=O)[C@H](CC(=O)O)NC(=O)[C@H](CC(C)C)NC(=O)[C@H](CO)NC(=O)[C@H](CC(C)C)NC(=O)[C@@H](NC(=O)[C@@H](N)[C@@H](C)CC)C(C)C)C(C)C)[C@@H](C)CC)C(=O)N[C@@H](CCC(N)=O)C(=O)N[C@@H](CCCCN)C(=O)N[C@@H](CC(C)C)C(=O)N[C@@H](CC(C)C)C(=O)N[C@@H](CCCCN)C(=O)N[C@@H](CCC(N)=O)C(=O)N[C@@H](CCC(N)=O)C(=O)N[C@@H](CCCNC(=N)N)C(=O)N[C@@H](CCC(N)=O)C(=O)N[C@@H](CCCNC(=N)N)C(=O)N[C@@H](CCCCN)C(=O)N[C@@H](CCC(=O)O)C(=O)N[C@@H](CCCNC(=N)N)C(=O)N[C@@H](CCC(N)=O)C(=O)N[C@@H](CCC(N)=O)C(=O)N[C@@H](C)C(=O)N[C@@H](CCC(=O)O)C(=O)N[C@@H](CCCCN)C(=O)N[C@@H](CC(N)=O)C(=O)N[C@@H](C)C(=O)N[C@@H](CCCNC(=N)N)C(=O)N[C@H](C(=O)N[C@@H](CC(C)C)C(=O)N[C@@H](C)C(=O)N[C@@H](CCCNC(=N)N)C(=O)N[C@H](C(N)=O)C(C)C)[C@@H](C)CC)C(=O)O) [SEQ ID NO: 6]	0.16	0.18
IVLSLDVPIKLK([AEEA-AEEA-γGlu-C18 diacid])QILLKQERQKKQREQAETNKQILAQV-NH2 (N-terminus assumed; SMILES CC[C@H](C)[C@H](N)C(=O)N[C@H](C(=O)N[C@@H](CC(C)C)C(=O)N[C@@H](CO)C(=O)N[C@@H](CC(C)C)C(=O)N[C@@H](CC(=O)O)C(=O)N[C@H](C(=O)N1CCC[C@H]1C(=O)N[C@H](C(=O)N[C@@H](CCCCN)C(=O)N[C@@H](CC(C)C)C(=O)N[C@@H](CCCCNC(=O)COCCOCCNC(=O)COCCOCCNC(=O)CC[C@H](NC(=O)CCCCCCCCCCCCCCCCC(=O)O)C(=O)O)C(=O)N[C@@H](CCC(N)=O)C(=O)N[C@H](C(=O)N[C@@H](CC(C)C)C(=O)N[C@@H](CC(C)C)C(=O)N[C@@H](CCCCN)C(=O)N[C@@H](CCC(N)=O)C(=O)N[C@@H](CCC(=O)O)C(=O)N[C@@H](CCCNC(=N)N)C(=O)N[C@@H](CCC(N)=O)C(=O)N[C@@H](CCCCN)C(=O)N[C@@H](CCCCN)C(=O)N[C@@H](CCC(N)=O)C(=O)N[C@@H](CCCNC(=N)N)C(=O)N[C@@H](CCC(=O)O)C(=O)N[C@@H](CCC(N)=O)C(=O)N[C@@H](C)C(=O)N[C@@H](CCC(=O)O)C(=O)N[C@H](C(=O)N[C@@H](CC(N)=O)C(=O)N[C@@H](CCCCN)C(=O)N[C@@H](CCC(N)=O)C(=O)N[C@H](C(=O)N[C@@H](CC(C)C)C(=O)N[C@@H](C)C(=O)N[C@@H](CCC(N)=O)C(=O)N[C@H](C(N)=O)C(C)C)[C@@H](C)CC)[C@@H](C)O)[C@@H](C)CC)[C@@H](C)CC)C(C)C)C(C)C) [SEQ ID NO: 85]	0.1	3.58
